Experimental data from article PMC3695512, “Recognition of two distinct elements in the RNA substrate by the RNA-binding domain of the T. thermophilus DEAD box helicase Hera”.
Where a chain is given by its changes, count along the chain named.

How the values were obtained:
Conditions in all cases: protein: recombinant; label: 5'-fluorescein; hairpin with 5' single strand
Hera_RBD G462C = molecular target: T1, Hera_RBD G462C (Thermus thermophilus, UniProt O07897 424-510, G462C); test: fluorescence anisotropy; 5 mM Mg2+; negligible effect; Anisotropy: 50 mM Tris/HCl pH 7.5, 150 mM NaCl, 5 mM MgCl2 (Fig 2), 25 C, 50 nM RNA; EMSA: same Tris/NaCl, 12% glycerol, 25 C; NMR: 25 mM Bis-Tris/HCl pH 6.0, 50 mM NaCl, 10% D2O, 37 C
T1 sequence: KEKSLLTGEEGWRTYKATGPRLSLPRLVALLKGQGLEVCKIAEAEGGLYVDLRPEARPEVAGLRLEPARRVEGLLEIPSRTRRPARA

Hera_RBD R449A = molecular target: T2, Hera_RBD R449A (Thermus thermophilus, UniProt O07897 424-510, R449A); test: fluorescence anisotropy; 5 mM Mg2+; Anisotropy: 50 mM Tris/HCl pH 7.5, 150 mM NaCl, 5 mM MgCl2 (Fig 2), 25 C, 50 nM RNA; EMSA: same Tris/NaCl, 12% glycerol, 25 C; NMR: 25 mM Bis-Tris/HCl pH 6.0, 50 mM NaCl, 10% D2O, 37 C
T2 sequence: T1 sequence with R26A, C39G

Hera_RBD K455A = molecular target: T3, Hera_RBD K455A (Thermus thermophilus, UniProt O07897 424-510, K455A); test: as above
T3 sequence: T1 sequence with K32A, C39G

Hera_RBD Q457C = molecular target: T4, Hera_RBD Q457C (Thermus thermophilus, UniProt O07897 424-510, Q457C); test: as above
T4 sequence: T1 sequence with Q34C, C39G

Hera_RBD R492A = molecular target: T5, Hera_RBD R492A (Thermus thermophilus, UniProt O07897 424-510, R492A); test: as above
T5 sequence: T1 sequence with C39G, R69A

Hera_RBD K439A = molecular target: T6, Hera_RBD K439A (Thermus thermophilus, UniProt O07897 424-510, K439A); test: as above
T6 sequence: T1 sequence with K16A, C39G

Hera_RBD R487A = molecular target: T7, Hera_RBD R487A (Thermus thermophilus, UniProt O07897 424-510, R487A); test: as above
T7 sequence: T1 sequence with C39G, R64A

Hera_RBD R444A/R449A = molecular target: T8, Hera_RBD R444A/R449A (Thermus thermophilus, UniProt O07897 424-510, R444A;R449A); test: as above
T8 sequence: T1 sequence with R21A, R26A, C39G

Hera_RBD S446C = molecular target: T9, Hera_RBD S446C (Thermus thermophilus, UniProt O07897 424-510, S446C); test: as above
T9 sequence: T1 sequence with S23C, C39G

Measured: binding signal

B1: 32mer (structured_RNA)
RNA: GCAGGUCCCAAGGGUUGGGCUGUUCGCCCAUU
> 25 fold Kd increase: Hera_RBD R449A | Hera_RBD R444A/R449A
< 5 fold Kd increase: all other assays above
